# Measurements taken from patent US20030186329A1, “Use of substrate subtraction libraries to distinguish enzyme specificities” (The Scripps Research Institute, priority 1998, published 2003).
# Tests used:
# Format in all cases: biochemical
# t-PA [1] = target: T1, t-PA (Homo sapiens, UniProt P00750); assay: Dot blot assay of digestion of individual substrate phage stocks by t-PA; settings: for selectivity of substrate phage for t-PA or u-PA: digestion by t-PA and u-PA; for digestion of phage stock by t-PA: loss of antibody epitopes
# Description: (§1) To verify that the substrate subtraction library had yielded substrates that were preferentially cleaved by t-PA, digestion of individual phage stocks by t-PA and u-PA was analyzed by a dot blot assay that was performed as previously described (Ding, L., et al., 1995; Smith, M. M., et al., 1995) (FIG. 3). Loss of positive staining indicates loss of antibody epitopes from the phage due to proteolytic cleavage of the random hexamer region.
# (§2) In general, with the exception of the screening protocol, procedures followed were those used in Example 1. Digestion of the phage was performed using enzyme concentrations varying from 2-10 μg/ml and incubation times varying from 0.5-10 hours. Phage precipitation and dot blot analysis were performed as described in Example 1. Individual phage stocks were prepared and digested with no enzyme, t-PA, u-PA, or u-PA in the presence of 1 mM amiloride, a specific inhibitor of u-PA′ for periods of time varying from 15 minutes to 10 hours. Individual reaction mixtures were spotted onto a nitrocellulose filter using a dot blotter apparatus (BioRad). The filter was probed with MAb 3E-7 and developed using the Amersham Western ECL kit. Loss of positive staining indicates loss of antibody epitopes from the phage due to proteolytic cleavage of the randomized hexamer region.
# t-PA [2] = target: T1, t-PA; assay: Kinetics of cleavage of synthetic peptides by t-PA (HPLC, Eadie-Hofstee analysis); settings: for t-PA:u-PA Selectivity: ratio of kcat/Km for peptide hydrolysis, t-PA over u-PA; for Km / kcat, t-PA: hydrolysis of peptide by t-PA
# Description: (§3) Concentrations of functional t-PA and u-PA were measured by active site titration with 4-methylumbelliferyl p-guanidinobenzoate (Jameson, G., et al., (1973) Biochem. J. 131, 107-117) using a Perkin-Elmer LS 50B Luminescence Fluorometer as previously described (Madison, E. L., et al., (1995) J. Biol. Chem. 270: 7558-7562). In addition, the enzymes were titrated with a standard PAI-1 preparation that had been previously titrated against a trypsin primary standard. Total enzyme concentrations were measured by ELISA.
# (§4) Individual phage stocks were prepared and digested with no enzyme, t-PA, u-PA, or u-PA in the presence of 1 mM amiloride, a specific inhibitor of u-PA. Kinetic-data were obtained by incubating various concentrations of peptide with a constant enzyme concentration to achieve between 5 and 20% cleavage of the peptide in each reaction. For assays with u-PA, enzyme concentration was either 815 or 635 nM. For assays with t-PA enzyme concentration was 700 nM. […] The buffer used in these assays has been described (Madison, E. L., et al., 1995). Reactions were stopped by addition of triflouroacetic acid to 0.33% or by freezing on dry ice. Cleavage of the 13 and 14 residue peptides was monitored by reverse phase HPLC as described (Madison, E. L., et al., 1995). The 4-6 residue peptides were acylated at their amino termini and amidated at their carboxyl termini. Cleavage of the 4-6 residue peptides was monitored by hydrophilic interaction HPLC chromatography (HILIC) (Alpert, A. J. (1990) J. Chromatog. 499, 177-196.) using a polyhydroxyaspartamine column from PolyLC (Columbia, Md.). Buffer A was 50 mM triethylamine phosphate in 10% acetonitrile and buffer B was 10 mM triethylamine phosphate in 80% acetonitrile. Peptides were eluted by a gradient which was varied from 100% Buffer B to 100% Buffer A during a 13 minute interval. The percent of cleaved peptide was calculated by dividing the area under the product peaks by the total area under substrate and product peaks. For all peptides containing multiple basic residues, mass spectral analysis of products confirmed that cleavage occurred at a single site and identified the scissile bond. Data were interpreted by Eadie-Hofstee analysis. Errors were determined as described (Taylor, J. R., 1982) An introduction to error analysis. The study of uncertainties in physical measurements. University Science Books, Mill Valley, Calif.) and were <25%.
# (§5) Kinetic data were obtained by incubating various concentrations of peptide with a constant enzyme concentration to achieve between 5 and 20% cleavage of the peptide in each reaction as described in Example 1.
# u-PA [3] = target: T2, u-PA (Homo sapiens, UniProt P00749); assay: Kinetics of cleavage of synthetic peptides by u-PA (HPLC, Eadie-Hofstee analysis); settings: hydrolysis of peptide by u-PA
# T2 construct: purchased Jack Henkin (Abbott Laboratories)
# Description: as §3, §4, §5
# u-PA [4] = assay: as above; settings: ratio of kcat/Km for peptide hydrolysis, u-PA over t-PA
# Description: as §3, §4, §5
# u-PA [5] = target: T2, u-PA; assay: Dot blot assay of digestion of individual substrate phage stocks by u-PA; settings: loss of antibody epitopes
# Description: as §1
# as §2, with “The filter was probed with MAb 3E-7 and developed using the Amersham Western ECL kit. Loss of positive staining indicates loss of antibody epitopes from the phage due to proteolytic cleavage of the randomized hexamer region.” left out
# Two changes were made in the experimental protocol to examine the P3 and P2 preferences of u-PA. […] Although this semi-quantitative assay cannot provide kinetic constants, it can provide an accurate rank ordering of the lability of the substrate phage clones.
# T1 sequence (P00750 36-562): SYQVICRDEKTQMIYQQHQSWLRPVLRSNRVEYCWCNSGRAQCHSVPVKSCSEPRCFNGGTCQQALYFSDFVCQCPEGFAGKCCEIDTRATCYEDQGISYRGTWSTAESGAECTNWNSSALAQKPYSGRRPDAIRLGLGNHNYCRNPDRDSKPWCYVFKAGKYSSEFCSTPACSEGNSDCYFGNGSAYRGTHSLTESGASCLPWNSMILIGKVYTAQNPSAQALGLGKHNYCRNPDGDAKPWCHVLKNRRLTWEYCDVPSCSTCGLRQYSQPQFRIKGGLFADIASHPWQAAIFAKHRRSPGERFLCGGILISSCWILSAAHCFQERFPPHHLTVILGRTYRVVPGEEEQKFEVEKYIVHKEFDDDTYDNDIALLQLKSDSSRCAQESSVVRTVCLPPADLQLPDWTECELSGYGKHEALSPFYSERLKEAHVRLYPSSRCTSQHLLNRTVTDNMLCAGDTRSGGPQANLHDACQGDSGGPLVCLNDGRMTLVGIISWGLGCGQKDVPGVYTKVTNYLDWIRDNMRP
substance,measurement,setting,value
FRGRAA [Phage 7],selectivity of substrate phage for t-PA or u-PA,t-PA [1],t-PA selective substrate
FRGR↓K (FRGRK; listed as Homo sapiens) [VII],t-PA:u-PA Selectivity,t-PA [2],approximately 74
GSGK↓S (GSGKS; listed as Homo sapiens) [XVIII],Km,u-PA [3],4.25 mM
same,"kcat, u-PA",u-PA [3],0.82 s⁻¹
same,u-PA:t-PA Selectivity,u-PA [4],approximately 120
same,Km,t-PA [2],44 mM
same,"kcat, t-PA",t-PA [2],0.07 s⁻¹
LGGSGR↓KASLSLE (LGGSGRKASLSLE; listed as Homo sapiens) [XIV],Km,u-PA [3],1.13 mM
same,"kcat, u-PA",u-PA [3],1.14 s⁻¹
same,Km,t-PA [2],5.1 mM
same,"kcat, t-PA",t-PA [2],0.168 s⁻¹
LGGSGR↓SATRDLE (LGGSGRSATRDLE; listed as Homo sapiens) [XIII],Km,u-PA [3],0.733 mM
same,"kcat, u-PA",u-PA [3],0.54 s⁻¹
same,Km,t-PA [2],1.5 mM
same,"kcat, t-PA",t-PA [2],0.068 s⁻¹
"PGRVVG [Control phage PL, reference compound]",digestion of phage stock by t-PA,t-PA [1],not digested by either enzyme
same,digestion of phage stock by u-PA,u-PA [5],not digested by either enzyme
RIARRA [Substrate phage 51],digestion of phage stock by t-PA,t-PA [1],substrate of both t-PA and u-PA
same,digestion of phage stock by u-PA,u-PA [5],substrate of both t-PA and u-PA
RSANAI [Phage 33],selectivity of substrate phage for t-PA or u-PA,t-PA [1],u-PA selective substrate
SGK↓S (SGKS; listed as Homo sapiens) [XVII],Km,u-PA [3],7.9 mM
same,"kcat, u-PA",u-PA [3],1.22 s⁻¹
same,Km,t-PA [2],28 mM
same,"kcat, t-PA",t-PA [2],0.19 s⁻¹
same,t-PA:u-PA Selectivity,t-PA [2],0.04
SGR↓S (SGRS; listed as Homo sapiens) [XV],Km,u-PA [3],2.1 mM
same,"kcat, u-PA",u-PA [3],2.3 s⁻¹
same,Km,t-PA [2],15 mM
same,"kcat, t-PA",t-PA [2],5.0 s⁻¹
same,t-PA:u-PA Selectivity,t-PA [2],0.30
SGR↓SA (SGRSA; listed as Homo sapiens) [XVI],Km,u-PA [3],3.1 mM
same,"kcat, u-PA",u-PA [3],3.7 s⁻¹
same,Km,t-PA [2],40 mM
same,"kcat, t-PA",t-PA [2],2.4 s⁻¹
